Here are results for 4 molecules from patent US9618524B2, “Method, composition, isolation and identification of a plaque particle and related biomarker” (Plaxgen Inc., priority 2012, dated 2017).

B1: Alpha-2-antiplasmin (protein)
chain: NQEQVSPLTLLKLGNQEPGGQTALKSPPGVCSRDPTPEQTHRLARAMMAFTADLFSLVAQTSTCPNLILSPLSVALALSHLALGAQNHTLQRLQQVLHAGSGPCLPHLLSRLCQDLGPGAFRLAARMYLQKGFPIKEDFLEQSEQLFGAKPVSLTGKQEDDLANINQWVKEATEGKIQEFLSGLPEDTVLLLLNAIHFQGFWRNKFDPSLTQRDSFHLDEQFTVPVEMMQARTYPLRWFLLEQPEIQVAHFPFKNNMSFVVLVPTHFEWNVSQVLANLSWDTLHPPLVWERPTKVRLPKLYLKHQMDLVATLSQLGLQELFQAPDLRGISEQSLVVSGVQHQSTLELSEVGVEAAAATSIAMSRMSLSSFSVNRPFLFFIFEDTTGLPLFVGSVRNPNPSAPRELKEQQDSPGNKDFLQSLKGFPRGDKLFGPDLKLVPPMEEDYPQFGSPK
B2: Alpha-1-acid glycoprotein 2 (protein)
chain: QIPLCANLVPVPITNATLDRITGKWFYIASAFRNEEYNKSVQEIQATFFYFTPNKTEDTIFLREYQTRQNQCFYNSSYLNVQRENGTVSRYEGGREHVAHLLFLRDTKTLMFGSYLDDEKNWGLSFYADKPETTKEQLGEFYEALDCLCIPRSDVMYTDWKKDKCEPLEKQHEKERKQEEGES
B3: Zinc-alpha-2-glycoprotein (protein)
chain: QENQDGRYSLTYIYTGLSKHVEDVPAFQALGSLNDLQFFRYNSKDRKSQPMGLWRQVEGMEDWKQDSQLQKAREDIFMETLKDIVEYYNDSNGSHVLQGRFGCEIENNRSSGAFWKYYYDGKDYIEFNKEIPAWVPFDPAAQITKQKWEAEPVYVQRAKAYLEEECPATLRKYLKYSKNILDRQDPPSVVVTSHQAPGEKKKLKCLAYDFYPGKIDVHWTRAGEVQEPELRGDVLHNGNGTYQSWVVVAVPPQDTAPYSCHVQHSSLAQPLVVPWEAS
B4: Protein AMBP (protein)
chain: GPVPTPPDNIQVQENFNISRIYGKWYNLAIGSTCPWLKKIMDRMTVSTLVLGEGATEAEISMTSTRWRKGVCEETSGAYEKTDTDGKFLYHKSKWNITMESYVVHTNYDEYAIFLTKKFSRHHGPTITAKLYGRAPQLRETLLQDFRVVAQGVGIPEDSIFTMADRGECVPGEQEPEPILIPRVRRAVLPQEEEGSGGGQLVTEVTKKEDSCQLGYSAGPCMGMTSRYFYNGTSMACETFQYGGCMGNGNNFVTEKECLQTCRTVAACNLPIVRGPCRAFIQLWAFDAVKGKCVLFPYGGCQGNGNKFYSEKECREYCGVPGDGDEELLRFSN

In the first experiment the target is T1, Abeta-42 plaque particles (Homo sapiens, UniProt P05067).
T1 construct: Abeta 1-42
Kind of experiment: Mass spectroscopy proteomics, semi-quantitative binding affinity of serum proteins (plaqueproteome, Table 2). The following applies: higher number = stronger affinity. Here is the method:
Next to isolate serum derived Abeta-42 plaque particles, the plasma or serum samples obtained from AD subjects were first centrifuged at 5,000 rpm for 5 min and the supernatants were transferred to new centrifuge tubes. Next, the supernatants were diluted in PBS to make 50% of the serum and plasma samples and used for incubation with Abeta-42 plaque oligomers/aggregates. Each assay was performed in 1 mL reaction (800 μL of 50% plasma or serum) and 200 μL (30 μg) of the Abeta-42 aggregates and the mixtures were incubated at 37° C. for 1 hr. To the mixture Thioflavin S dye (120 μg) was added and the sample was incubated for additional 30 min at 37° C. After the incubation, the mixture was directly used for sample acquisition using flow cytometer (FACS ARIA II, BD Biosciences, San Jose, Calif.). After initial detection of Abeta-42 plaque particles in the acquisition blot, gates were drawn in fluorescent dot blot to separately sort and isolate fluorescently labeled Abeta-42 particles.
(§1) For preparing trypsin digested peptide sequences, the isolated plaque particles were centrifuged at 10000 rpm for 5 min and the pellet containing plaque particles was resuspended in 100 μl PBS buffer. Stock solutions of digestion buffer (Ammonium Biocarbonate 50 mM), reducing buffer (DDT 100 mM) and alkylation buffer (lodoaceamide 100 mM) were prepared and stored at −20° C. for up to two months. For trypsin digestion, 100 μl of each plaque particles (2000 of Abeta-42, cholesterol, Tau and alpha-synuclein) were precipitated using cold acetone −80° C. by adding 4X's the volume. The samples were placed on dry ice for 10 min with intermittent vortex. Next, the samples were centrifuged at 4° C. at 10000 G for 10 min. Top layer of acetone was carefully removed from the tube with care not to disturb the plaque particles pellet. The samples were speed-vac for 10 min to ensure all acetone has been boiled away. The plaque particles pellet were reconstituted with 15 μl 8M Urea 100 mM Ammonium bicarbonate stock and 20 μl protease max solution. The protease max solution (Promega, Madison, Wis.) was prepared from stock by adding 60 μl 50 mM Ammonium bicarbonate and used for 3 solution digests (20 μl each). […] The tubes were incubated at 55° C. for 30 minutes. The tubes were then removed and brought to the room temperature followed by addition of 3.2 μl of 1M acrylamide and incubated at room temperature for 30 minutes. To the sample, 63 μL of 50 mM Ammonium bicarbonate was added for a final volume of 98 μl and 2 μl of trypsin (10 μg, Trypsin/Lys C Mix). After mixing the solution with pipet the samples were incubated at 37° C. overnight. After the overnight digest, the tryptic digest were quenched and acidified by adding 10 μl of 50% formic acid/water stock dilution. The samples were centrifuged at 10000 G for 2 minutes and purified using stage tip and used for MS/Mass analysis.
(§2) All MS/MS samples were analyzed using Sequest (Thermo Fisher Scientific, San Jose, Calif., USA; version 1.0). Sequest was set up to search the SUMS_uniprot_Human database (35847 entries) assuming the digestion enzyme strict trypsin. Sequest was searched with a fragment ion mass tolerance of 1.00 Da and a parent ion tolerance of 20 PPM. Propionamide of cysteine was specified in Sequest as a fixed modification. Oxidation of methionine and phospho of serine, threonine and tyrosine were specified in Sequest as variable modifications.
Scaffold (version Scaffold_4.2.1, Proteome Software Inc., Portland, Oreg.) was used to validate MS/MS based peptide and protein identifications. […] Protein probabilities were assigned by the Protein Prophet algorithm (Nesvizhskii, Al et al 2003). […] Proteins sharing significant peptide evidence were grouped into clusters. Proteins were annotated with GO terms from NCBI (downloaded Jan. 17, 2014).
For the molecule B1, the “Semi-quantitative analysis of proteins binding to different plaque particles: Abeta-42” value was 0.
The same measure, in the same setting: with B2 the figure was 9; with B3, 5.
The same measure, in the same setting: with B4 the figure was 5.

The test system of a further experiment is High Density cholesterol (Chl Large) plaque particles. The experiment is described as above. The arrangement: species or system human. The settings on record: higher number = stronger affinity. Here is the method:
(§3) The goal was to isolate plaque particles synthesized in the bio-fluids in a relatively pure form to enable their subsequent use for identification of components that contribute to the plaque formation. In order to isolate cholesterol plaque particles, the plasma or serum samples obtained from atherosclerotic subjects were first centrifuged at 5,000 rpm for 5 min and the supernatants were transferred to new centrifuge tubes. Next, the supernatants were diluted in PBS to make 50% of the serum and used for incubation with cholesterol oligomers/aggregates. Each assay was performed in 1 mL reaction (800 μL of 50% plasma or serum) and 200 μL (30 μg) of the Cholesterol aggregates and the mixtures were incubated at 37° C. for 1 hr After the incubation, the mixture was directly used for sample acquisition using flow cytometer (FACS ARIA II, BD Biosciences, San Jose, Calif.). […] In order to isolate these fractions, three sets of gates were drawn in the acquisition blot to separately sort and isolate High density or high complex cholesterol particles, Low density or low complex cholesterol particles and both High and low density cholesterol particles together.
as §1, §2
(§4) Scaffold (version Scaffold_4.2.1, Proteome Software Inc., Portland, Oreg.) was used to validate MS/MS based peptide and protein identifications. […] Protein probabilities were assigned by the Protein Prophet algorithm (Nesvizhskii, Al et al 2003).
Take B1: the “Semi-quantitative analysis of proteins binding to different plaque particles: Chl Large” value came to 6.
On the same count and under the same terms, the same measure for B2: 5; for B3: 4; for B4: 5.

In the next experiment the test system is Low density cholesterol (Chl small) plaque particles. Described as above. The following applies: higher number = stronger affinity. The arrangement: species or system human. The procedure: as §3, §1, §2, §4
Turning to B1, the “Semi-quantitative analysis of proteins binding to different plaque particles: Chl small” value was 3.
Same read-out and setting: with B2 the figure was 7; with B3, 5; with B4, 5.

Another experiment addresses T2, alpha-synuclein plaque particles (Homo sapiens, UniProt P37840).
T2 construct: 140 amino acids polypeptide
The experiment is described as above. The settings on record: higher number = stronger affinity. Here is the method:
To prepare oligomers/aggregates of human alpha-synuclein (140 amino acids polypeptide), 1 mg of the recombinant alpha-synuclein protein was suspended in 1 mL of PBS and the sample was incubated at 37° C. for 2 hrs. After incubation, all the samples were centrifuged for 5 min. at 5000 rpm to remove precipitate, if any, and the supernatant containing oligomers/aggregates were used in vitro plaque particles formation assay. For detecting alpha-synuclein plaque particles Thioflavin S (Ex/Em=430 nm/550 nm) amyloid binding fluorescent dye (10 μg) was used.
Similarly, to isolate alpha-synuclein plaque particles, diluted plasma or serum samples obtained from AD subjects were used for incubation with alpha-synuclein plaque oligomers/aggregates. Each assay was performed in 1 mL reaction (800 μL of 50% plasma or serum) and 200 μL (30 μg) of the alpha-synuclein aggregates and the mixtures were incubated at 37° C. for 1 hr. To the mixture Thioflavin S dye (120 μg) was added and the sample was incubated for additional 30 min at 37° C. After the incubation, the mixture was directly used for sample acquisition using flow cytometer (FACS ARIA II, BD Biosciences, San Jose, Calif.). After initial detection of alpha-synuclein plaque particles, gates were drawn in the acquisition blot to separately sort and isolate fluorescently labeled alpha-synuclein particles.
as §1, §2
Scaffold (version Scaffold_4.2.1, Proteome Software Inc., Portland, Oreg.) was used to validate MS/MS based peptide and protein identifications.
Regarding B1, the “Semi-quantitative analysis of proteins binding to different plaque particles: Synuclein” value amounted to 5.
The same measure, in the same setting: with B2 the figure was 10; with B3, 7; with B4, 5.

Another experiment concerns Tau plaque particles. The experiment is described as above. The arrangement: species or system human. The following applies: higher number = stronger affinity. Here is the method: For Tau-74 (74-102) (Exon 3/Insert 2 domain) preparation, 1 mg of Tau-74 was suspended in 1 mL of PBS and the sample was incubated at 37° C. for 2 hrs. Similarly for preparing Tau-275 (275-305) (Repeat 2 domain) 1 mg of the peptide was suspended in 1 mL of PBS and the sample was incubated at 37° C. for 2 hrs. After incubation, all the samples were centrifuged for 5 min. at 5000 rpm to remove precipitate, if any, and the supernatant containing oligomers/aggregates were used for in vitro amyloid plaque particles formation assay. For detecting Tau plaque particles, Thioflavin S (Ex/Em=430 nm/550 nm) amyloid binding fluorescent dye (10 μg) was used in the assay.
Next, to isolate Tau plaque particles, as performed for Abeta-42 and Abeta-28 plaque particles isolation, diluted serum samples were used for incubation separately with Tau-45, Tau-74 and Tau-275 oligomers/aggregates. Each assay was performed in 1 mL reaction (800 μL of 50% plasma or serum) and 200 μL (30 μg) of each Tau aggregates and the mixtures were incubated at 37° C. for 1 hr. To the each mixture Thioflavin S dye (120 μg) was added and the sample was incubated for additional 30 min at 37° C. After the incubation, each sample was directly used for sample acquisition using flow cytometer (FACS ARIA II, BD Biosciences, San Jose, Calif.). After initial detection of Tau plaque particles, gates were drawn in the acquisition blot to separately sort and isolate fluorescently labeled Tau plaque particles.
as §1, §2
As to B1, the “Semi-quantitative analysis of proteins binding to different plaque particles: Tau” value is reported as 5.
The same measure, in the same setting: the same measure for B2: 9.
On the same count and under the same terms, with B3 the figure was 4; with B4, 10.
